Assay results taken from patent US20220227870A1 (Innovent, published 2022).

How the values were obtained:
h CD47 (Acrobiosystems) = biological target: T1, h CD47 (Acrobiosystems) (human, UniProt Q08722 19-139); assay: ForteBio Octet BLI; antibody loaded on AHC sensor, h CD47 100 nM in solution
T1 construct: Bought soluble antigen; also called CD47 protein in solution
Experimental: (§1) The anti-human IgG Fc biosensor AHC was immersed in each well containing the antibody solution, and immersed at room temperature for 600 seconds to load the samples. The sensor was then washed in SD buffer until it returned to the baseline, and then immersed in a well containing 100 μL of the antigen solution to monitor the association of the antibody with the antigen. The sensor was then transferred to a well containing 100 ul of SD buffer to monitor the antibody dissociation. The rotation speed was 400 rpm and the temperature was 30° C. The background-corrected association and dissociation curves were plotted by the Octet analysis software (ForteBio) to generate the association (k_{∞}) rate constant and dissociation (kdis) rate constant, which are then used to calculate the equilibrium dissociation constant (KD).

[1] = biological target: T2, human CD47 expressed on the surface of cells (CHO-S-CD47 cells) (human, UniProt Q08722 19-323); assay: FACS on CHO-S cells overexpressing human CD47, PE-conjugated anti-human Fc detection, MFI
T2 construct: whole, on cells; also called CHO-S cells overexpressing CD47; CHO-CD47
Experimental: The cell suspension was centrifuged at 400 g on a centrifuge for 5 minutes to remove the cell medium. […] The cell suspension was centrifuged at 400 g for 5 minutes, and then the supernatant was removed, and the cells were washed with PBS to remove the unbound antibodies. The obtained cell suspension was centrifuged at 400 g for 5 minutes to remove PBS. 100 μL of the solution of PE-conjugated anti-human Fc antibody (Jackson Immuno Research) diluted at a ratio of 1:200 was added to each well, and the cells were incubated in the dark on the ice for 30 minutes. Then the cell suspension was centrifuged at 400 g for 5 minutes and the supernatant was removed. The cells were washed with PBS to remove the unbound PE-conjugated anti-human Fc antibody. The cells were resuspended with 100 μL of PBS, and the binding of the antibodies to cells was assayed by FACS.

[2] = biological target: T3, rh PD-L1 (Acrobiosystems) (human, UniProt Q9NZQ7 19-238); assay: ForteBio Octet BLI; antibody loaded on AHC sensor, antigen 100 nM in solution; note: N.B: Not detectable
T3 construct: Bought soluble antigen; also called PD-L1 protein in solution
Experimental: as §1

[3] = biological target: T4, tumor cells H292 (ATCC), co-incubated with human red blood cells; assay: flow cytometry; CFSE-labelled H292 cells co-incubated 1:20 with human red blood cells; antibody 0.014 nM
T4 construct: also called H292 cells
Experimental: (§2) The mixture was then gently added to 4 tubes each with 12.5 ml of FiColl (Thermo). The samples were centrifuged at 400 g for 30 min with zero deceleration. The upper serum and PBMC were removed to obtain red blood cells in the lowest layer.
(§3) Tumor cells H292 (ATCC) were fluorescently labeled with fluorochrome CFSE according to the instructions of CellTrace™ CFSE Cell Proliferation Kit (Invitrogen, catalog number: C34554). The labeled tumor cells were co-cultured with the aforementioned isolated human red blood cells at a ratio of 1:20 in terms of cell number, and meanwhile, tested antibody solutions of different concentrations were added. The cells were incubated at 4° C. for 30 min. […] The cells were washed at least twice with PBS and analyzed by flow cytometry.

[4] = biological target: T4, tumor cells H292 (ATCC), co-incubated …; assay: flow cytometry; CFSE-labelled H292 cells co-incubated 1:20 with human red blood cells; antibody 0.041 nM
Experimental: as §3

[5] = biological target: T4, tumor cells H292 (ATCC), co-incubated …; assay: flow cytometry; CFSE-labelled H292 cells co-incubated 1:20 with human red blood cells; antibody 0.123 nM
Experimental: as §3

[6] = biological target: T4, tumor cells H292 (ATCC), co-incubated …; assay: flow cytometry; CFSE-labelled H292 cells co-incubated 1:20 with human red blood cells; antibody 0.370 nM
Experimental: as §2, §3

[7] = biological target: T4, tumor cells H292 (ATCC), co-incubated …; assay: flow cytometry; CFSE-labelled H292 cells co-incubated 1:20 with human red blood cells; antibody 1.111 nM
Experimental: as §3

[8] = biological target: T4, tumor cells H292 (ATCC), co-incubated …; assay: flow cytometry; CFSE-labelled H292 cells co-incubated 1:20 with human red blood cells; antibody 3.333 nM
Experimental: as §2, §3

[9] = biological target: T4, tumor cells H292 (ATCC), co-incubated …; assay: flow cytometry; CFSE-labelled H292 cells co-incubated 1:20 with human red blood cells; antibody 10.000 nM
Experimental: as §2, §3

B1: anti-CD47 antibody ADI-29341 (antibody, V domains shown)
VH: QVQLQESGPGLVKPSETLSLTCTVSGGSIEHYYWSWIRQPPGKGLEWIGYIYYSGSTNYNPSLKSRVTISVDTSKNQFSLKLSSVTAADTAVYYCARGKTGSAAWGQGTLVTVSS
VL: DIQMTQSPSSVSASVGDRVTITCRASQGISRWLAWYQQKPGKAPKLLIYAASSLQSGVPSRFSGSGSGTDFTLTISSLQPEDFATYYCQQTVSFPITFGGGTKVEIK
notes: captured on an anti-human IgG Fc sensor; also called parent antibody (anti-CD47)
H CD47 (Acrobiosystems)
  Kd: 2.32 nM
  koff: 0.0018 s⁻¹
  kon: 774000 M⁻¹ s⁻¹
[1]
  EC50 (read off the curve): ~1 nM
[2]
  binding result: no binding (tested: 100 nM)
[3]
  proportion of antibody binding to H292 cells: 3.59%
[4]
  proportion of antibody binding to H292 cells: 17.7%
[5]
  proportion of antibody binding to H292 cells: 5.74%
[6]
  proportion of antibody binding to H292 cells: 14.4%
[7]
  proportion of antibody binding to H292 cells: 6.15%
[8]
  proportion of antibody binding to H292 cells: 8.42%
[9]
  proportion of antibody binding to H292 cells: 3.9%
